Series [1] concerns the target SegB (Sulfolobus solfataricus). Nature of the series: SEC.
Series [2] has as its target SegA (Sulfolobus solfataricus).
Series [3] addresses SegA (Sulfolobus solfataricus). Nature of the series: SEC. (In general: Size exclusion chromatography separates by hydrodynamic size, large species first.)
Series [4] concerns the target T1, SegA (Saccharolobus solfataricus, UniProt Q981B3).
T1 sequence (Q981B3 1-220): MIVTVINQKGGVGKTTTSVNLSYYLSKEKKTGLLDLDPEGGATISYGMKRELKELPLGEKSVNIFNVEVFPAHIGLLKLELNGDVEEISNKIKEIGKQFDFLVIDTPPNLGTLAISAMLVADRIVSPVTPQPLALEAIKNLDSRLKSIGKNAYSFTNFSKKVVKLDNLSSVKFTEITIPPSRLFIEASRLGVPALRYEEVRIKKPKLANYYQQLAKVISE
The series is described as follows: X-ray crystal structure. It counts as binding. As to conditions: nucleotide pocket.

In series [5] the target is T2, SegBΔ33 (Sulfolobus solfataricus, UniProt Q981B2 34-109, del1-33).
T2 sequence: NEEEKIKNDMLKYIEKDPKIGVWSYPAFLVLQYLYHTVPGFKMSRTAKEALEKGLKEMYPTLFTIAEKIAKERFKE
The series is described as follows: crystal structure.

A further series has as its target T3, SegA-G10V (Sulfolobus solfataricus, UniProt Q981B3 1-220, G10V).
T3 sequence: T1 sequence (Q981B3 1-220) with G10V
Nature of the series: fluorescence polarization. A general note: Polarisation of emitted light reports the rotation of a fluorescent probe.

The target in another series is T4, SegA-K14Q (Sulfolobus solfataricus, UniProt Q981B3 1-220, K14Q).
T4 sequence: T1 sequence (Q981B3 1-220) with K14Q
The series is described as follows: fluorescence polarization.

For another series, the target named is T5, SegA-Q131A/F158A (Sulfolobus solfataricus, UniProt Q981B3 1-220, Q131A;F158A).
T5 sequence: T1 sequence (Q981B3 1-220) with Q131A, F158A
The series is described as follows: fluorescence polarization.

Another series has as its target T6, SegA-Q131A (Sulfolobus solfataricus, UniProt Q981B3 1-220, Q131A).
T6 sequence: T1 sequence (Q981B3 1-220) with Q131A
Nature of the series: fluorescence polarization.

A further series has as its target T7, SegB (Sulfolobus solfataricus, UniProt Q981B2 1-109).
T7 sequence: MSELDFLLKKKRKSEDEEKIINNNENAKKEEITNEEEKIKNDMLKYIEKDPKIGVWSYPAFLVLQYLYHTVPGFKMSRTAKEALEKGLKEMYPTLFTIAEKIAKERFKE
Nature of the series: fluorescence polarization.

In series [6] the target is T2, SegBΔ33. Nature of the series: fluorescence polarization.
Series [7] addresses T8, SegA (Sulfolobus solfataricus, UniProt Q981B3 1-220).
T8 sequence: T1 sequence (Q981B3 1-220)
The series is described as follows: fluorescence polarization.

The target of series [8] is T8, SegA. The series is described as follows: fluorescence polarization. This is another data set of the same source.
For series [9], the target named is T8, SegA. Nature of the series: fluorescence polarization. The source holds these as a separate data set.

Residue numbers refer to the chain shown, from its start. Like-named read-outs stand apart in the source and are kept apart here.

A word on the stoichiometry N: it is the number of molecules, sites or subunits per partner or assembly. The Kd is the equilibrium constant for the complex coming apart. A lower Kd goes with a tighter complex.

With SegB (natural protein), the stoichiometry N in series [1] worked out at 2. The increase of SegA ATPase activity upon addition of both SegB and S1 DNA in series [2] came to 1000 fold.

In series [3], SegA (enzyme) yielded a stoichiometry N of 2.

Consider `Nc1ncnc2c1ncn2[C@@H]1O[C@H](COP(=O)(O)OP(=O)(O)NP(=O)(O)O)[C@@H](O)[C@H]1O` [AMPPNP, adenosine 5′-(β,γ-imido)triphosphate], for which, on SegA [4], the X-ray crystal structure entry is recorded as “We observed AMPPNP inside the nucleotide binding pocket”.

B1: 21-bp S1 DNA (dsDNA)
DNA 1: ACGTAGAAGAGTCTAGACTGA
DNA 2: CAGTCTAGACTCTTCTACGTA
In the case of B1, the binding result in the series with SegBΔ33 [5] is on record as “binds”.

B2: 23-bp S1 DNA (dsDNA)
DNA 1: TACGTAGAAGAGTCTAGACTGAC
DNA 2: TCAGTCTAGACTCTTCTACGTAG
Regarding B2, the binding result in the series with SegA-G10V is listed as “binds”; with SegA-K14Q, “binds”; with SegA-Q131A/F158A it was “no binding”; in the series with SegA-Q131A, “no binding”. The Kd in the series with SegB was 180 nM; with SegBΔ33 [6], 280 nM.

B3: 24-bp nsDNA (dsDNA)
DNA 1: AGGGTGTTCCACGTGAAACAGGGA
DNA 2: TCCCTGTTTCACGTGGAACACCCT
As for B3, the Kd with SegA [7] is 710 nM; with SegA [8], 240 nM; with SegA [9], 450 nM.

The record behind these values is publication PMC8682754 (Nucleic Acids Research, 2021).
